Assay results from patent publication US20100323375.

Assays:
FLAG-Alcalpha = molecular target: T1, FLAG-Alcalpha
T1 chain 1: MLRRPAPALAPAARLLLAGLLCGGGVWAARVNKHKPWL
T1 chain 2: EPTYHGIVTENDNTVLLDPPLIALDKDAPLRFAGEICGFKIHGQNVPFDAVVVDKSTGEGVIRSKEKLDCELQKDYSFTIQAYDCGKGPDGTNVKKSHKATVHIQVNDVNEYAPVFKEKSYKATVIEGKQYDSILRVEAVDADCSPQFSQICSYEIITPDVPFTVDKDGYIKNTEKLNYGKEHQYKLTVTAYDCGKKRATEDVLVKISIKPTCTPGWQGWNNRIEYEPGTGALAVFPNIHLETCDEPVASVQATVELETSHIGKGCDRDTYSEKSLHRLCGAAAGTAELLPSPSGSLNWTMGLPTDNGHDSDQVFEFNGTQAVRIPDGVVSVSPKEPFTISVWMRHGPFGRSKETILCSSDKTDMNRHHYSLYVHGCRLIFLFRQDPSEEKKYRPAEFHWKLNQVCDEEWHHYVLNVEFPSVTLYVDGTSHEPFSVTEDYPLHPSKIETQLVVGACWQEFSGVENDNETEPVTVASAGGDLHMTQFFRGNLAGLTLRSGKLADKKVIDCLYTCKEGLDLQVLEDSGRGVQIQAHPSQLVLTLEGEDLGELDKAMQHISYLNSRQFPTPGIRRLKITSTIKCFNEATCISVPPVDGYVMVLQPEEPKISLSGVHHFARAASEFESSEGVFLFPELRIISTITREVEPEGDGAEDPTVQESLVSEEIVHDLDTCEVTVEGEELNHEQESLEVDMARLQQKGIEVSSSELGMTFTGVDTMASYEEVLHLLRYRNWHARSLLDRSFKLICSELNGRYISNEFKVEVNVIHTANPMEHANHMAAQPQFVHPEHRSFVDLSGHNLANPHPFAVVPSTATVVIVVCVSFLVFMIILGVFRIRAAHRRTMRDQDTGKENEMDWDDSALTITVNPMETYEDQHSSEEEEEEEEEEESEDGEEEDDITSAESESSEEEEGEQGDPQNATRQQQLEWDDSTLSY

FLAG-Alcbeta = molecular target: T2, FLAG-Alcbeta
T2 chain 1: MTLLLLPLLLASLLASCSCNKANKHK
T2 chain 2: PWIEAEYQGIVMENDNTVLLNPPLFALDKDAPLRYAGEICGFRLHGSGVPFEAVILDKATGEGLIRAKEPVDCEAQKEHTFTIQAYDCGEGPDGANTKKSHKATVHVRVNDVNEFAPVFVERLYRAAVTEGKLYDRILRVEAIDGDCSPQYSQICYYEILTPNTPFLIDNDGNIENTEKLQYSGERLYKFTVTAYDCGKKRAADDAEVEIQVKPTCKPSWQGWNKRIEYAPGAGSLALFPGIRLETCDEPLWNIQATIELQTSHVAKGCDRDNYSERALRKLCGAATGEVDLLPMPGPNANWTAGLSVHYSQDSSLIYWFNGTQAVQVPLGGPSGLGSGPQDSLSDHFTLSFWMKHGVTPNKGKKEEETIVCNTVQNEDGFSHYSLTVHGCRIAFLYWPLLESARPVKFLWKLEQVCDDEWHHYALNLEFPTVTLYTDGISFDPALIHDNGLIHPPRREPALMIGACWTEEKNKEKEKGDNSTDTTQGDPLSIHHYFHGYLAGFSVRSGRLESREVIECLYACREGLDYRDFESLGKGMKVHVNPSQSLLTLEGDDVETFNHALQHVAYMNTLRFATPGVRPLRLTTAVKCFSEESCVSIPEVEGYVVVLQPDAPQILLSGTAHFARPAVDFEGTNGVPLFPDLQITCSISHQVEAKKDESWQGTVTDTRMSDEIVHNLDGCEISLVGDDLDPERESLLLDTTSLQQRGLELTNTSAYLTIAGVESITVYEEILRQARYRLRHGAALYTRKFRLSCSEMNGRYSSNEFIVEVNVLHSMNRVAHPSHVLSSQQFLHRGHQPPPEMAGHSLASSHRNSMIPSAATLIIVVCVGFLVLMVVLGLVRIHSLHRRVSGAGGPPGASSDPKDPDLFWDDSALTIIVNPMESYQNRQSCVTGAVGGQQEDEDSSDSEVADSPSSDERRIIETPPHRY

FLAG-Alcgamma = molecular target: T3, FLAG-Alcgamma
T3 chain 1: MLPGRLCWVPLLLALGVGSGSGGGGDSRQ
T3 chain 2: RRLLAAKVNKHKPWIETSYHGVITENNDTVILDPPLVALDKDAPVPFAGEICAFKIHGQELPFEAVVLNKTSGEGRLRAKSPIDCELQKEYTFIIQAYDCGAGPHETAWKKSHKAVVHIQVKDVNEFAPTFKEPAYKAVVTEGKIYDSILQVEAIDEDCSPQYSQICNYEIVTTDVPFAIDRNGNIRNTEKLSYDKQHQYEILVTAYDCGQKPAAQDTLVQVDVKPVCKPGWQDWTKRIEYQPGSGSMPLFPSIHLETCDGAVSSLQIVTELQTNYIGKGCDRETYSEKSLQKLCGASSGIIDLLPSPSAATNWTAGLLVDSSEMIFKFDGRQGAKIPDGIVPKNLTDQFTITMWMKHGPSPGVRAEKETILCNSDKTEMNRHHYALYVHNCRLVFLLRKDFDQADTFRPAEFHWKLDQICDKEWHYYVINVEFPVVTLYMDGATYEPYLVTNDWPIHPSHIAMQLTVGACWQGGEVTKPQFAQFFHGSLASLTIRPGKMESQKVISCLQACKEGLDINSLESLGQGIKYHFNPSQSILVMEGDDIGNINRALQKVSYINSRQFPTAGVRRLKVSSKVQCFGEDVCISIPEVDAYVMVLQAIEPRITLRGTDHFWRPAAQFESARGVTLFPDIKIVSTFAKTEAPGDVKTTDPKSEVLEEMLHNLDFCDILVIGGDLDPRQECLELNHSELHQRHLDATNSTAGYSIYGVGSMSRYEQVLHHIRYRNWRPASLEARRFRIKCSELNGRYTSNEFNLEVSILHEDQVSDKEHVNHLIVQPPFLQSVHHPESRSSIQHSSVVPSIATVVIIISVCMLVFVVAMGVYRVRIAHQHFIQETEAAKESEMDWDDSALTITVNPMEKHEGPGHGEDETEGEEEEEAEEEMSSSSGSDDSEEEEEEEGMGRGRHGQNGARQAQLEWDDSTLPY

Chain of FLAG-APP, P05067 (P05067 whole entry, looked up): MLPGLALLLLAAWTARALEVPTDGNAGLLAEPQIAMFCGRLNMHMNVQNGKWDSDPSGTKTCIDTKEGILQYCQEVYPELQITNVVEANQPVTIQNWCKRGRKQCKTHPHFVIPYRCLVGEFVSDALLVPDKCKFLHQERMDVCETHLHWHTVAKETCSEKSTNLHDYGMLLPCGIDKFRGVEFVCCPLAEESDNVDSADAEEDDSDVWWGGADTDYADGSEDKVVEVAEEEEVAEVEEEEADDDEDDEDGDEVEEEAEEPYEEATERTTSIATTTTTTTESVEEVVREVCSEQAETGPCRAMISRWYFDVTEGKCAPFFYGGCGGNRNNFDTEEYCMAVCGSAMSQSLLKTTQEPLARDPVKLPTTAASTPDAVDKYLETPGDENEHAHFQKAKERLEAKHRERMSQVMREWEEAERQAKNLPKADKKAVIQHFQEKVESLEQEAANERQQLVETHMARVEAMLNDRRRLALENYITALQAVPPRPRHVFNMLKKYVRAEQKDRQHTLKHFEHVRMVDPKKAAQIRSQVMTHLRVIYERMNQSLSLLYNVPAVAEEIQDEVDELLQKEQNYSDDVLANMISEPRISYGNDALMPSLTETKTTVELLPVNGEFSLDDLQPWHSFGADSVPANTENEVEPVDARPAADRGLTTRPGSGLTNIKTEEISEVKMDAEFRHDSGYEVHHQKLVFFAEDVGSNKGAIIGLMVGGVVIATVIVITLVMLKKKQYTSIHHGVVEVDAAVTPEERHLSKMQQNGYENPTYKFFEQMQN

B1: ADAM10 (endogenous, mouse embryonic fibroblasts) (protein)
chain: TTLAERNTCQLYIQTDHLFFKYYGTREAVIAQISSHVKAIDTIYQTTDFSGIRNISFMVKRIRINTTSDEKDPTNPFRFPNIGVEKFLELNSEQNHDDYCLAYVFTDRDFDDGVLGLAWVGAPSGSSGGICEKSKLYSDGKKKSLNTGIITVQNYGSHVPPKVSHITFAHEVGHNFGSPHDSGTECTPGESKNLGQKENGNYIMYARATSGDKLNNNKFSLCSIRNISQVLEKKRNNCFVESGQPICGNGMVEQGEECDCGYSDQCKDDCCFDANQPEGKKCKLKPGKQCSPSQGPCCTAQCAFKSKSEKCRDDSDCAKEGICNGFTALCPASDPKPNFTDCNRHTQVCINGQCAGSICEKYDLEECTCASSDGKDDKELCHVCCMKKMAPSTCASTGSLQWSKQFSGRTITLQPGSPCNDFRGYCDVFMRCRLVDADGPLARLKKAIFSPQLYENIAEWIVAHWWAVLLMGIALIMLMAGFIKICSVHTPSSNPKLPPPKPLPGTLKRRRPPQPIQQPPRQRPRESYQMGHMRR
- amount of sAPP secreted into the medium (western blot of anti-FLAG immunoprecipitate), ADAM10 (-/-) against (+/-) MEFs (FLAG-APP, P05067): ADAM (-/-) MEFs secreted sAPP (lane 2 of FIG. 1D) 40% lower than ADAM (+/-) MEFs
- amount of sAlcalpha secreted into the medium (western blot of anti-FLAG immunoprecipitate), ADAM10 (-/-) against (+/-) MEFs (FLAG-Alcalpha): The amounts of sAlcalpha, sAlcbeta, and sAlcgamma secreted by ADAM (-/-) MEFs were as low as that of APP
- amount of sAlcbeta secreted into the medium (western blot of anti-FLAG immunoprecipitate), ADAM10 (-/-) against (+/-) MEFs (FLAG-Alcbeta): The amounts of sAlcalpha, sAlcbeta, and sAlcgamma secreted by ADAM (-/-) MEFs were as low as that of APP
- amount of sAlcgamma secreted into the medium (western blot of anti-FLAG immunoprecipitate), ADAM10 (-/-) against (+/-) MEFs (FLAG-Alcgamma): The amounts of sAlcalpha, sAlcbeta, and sAlcgamma secreted by ADAM (-/-) MEFs were as low as that of APP
